Experiments:
APP751wt = test: cell-free β-secretase assay, β-NTF ELISA, APP751wt substrate; assay type: biochemical, human; conditions: membrane extracts of transfected HEK293 cells, incubation up to 8 hours
Experimental: The β-secretase assay consists of two different parts, an incubation or reaction phase to generate β-NTF and an ELISA part to capture and measure the β-NTF generated by β-secretase. The β-secretase ELISA was performed as follows. Each well of a 96 well plate containing a flat bottom (high protein binding, Corning, N.Y.) was coated with 100 μl of the monoclonal capture antibody 8E5 (at ˜8-10 μg/ml) (Johnson-Wood et al. Proc. Natl. Acad. Sci. USA 94: 1550-1555 [1997]). The plate was then covered with parafilm and incubated overnight at 4° C. or alternatively for 2 hours at 37° C. […]
One hundred μl of a 1:5000 dilution of a goat anti rabbit IgG-HRP in Antibody-Conjugate Buffer was then added to each well, and the plate incubated at room temperature for one hour. […] After sufficient blue color had developed, the reactions were stopped by adding 100 μl of 5N H2SO4 to each well, and the amount of βNTF was determined by reading the plate at 450 nm in a Softmax spectrophotometer.
Equal amounts of membrane extracts from either mock, BACE or BACE2 transfected HEK293 cells were incubated with partially purified full length APP751 sw or APP751wt for the indicated times. The formation of β-NTF was then determined using the respective β-NTF specific ELISA as described in General Methodology.

[1] = tested on: APP751sw processing in HEK293T cells; test: pulse-chase / pulse-labeling and immunoprecipitation of APP CTFs, Aβ and p3 in HEK293T cells; assay type: cell-based, human
Experimental: Forty eight hours post-transfection, HEK293T cells were labeled for 15 minutes with 200 μCi Promix L [^35S] in vitro cell labeling mix (Amersham) and chased for up to 90 minutes according to standard procedures. APP CTFs were immunoprecipitated with antibodies 369 (Cai et al., Science 259: 514-516 [1993]). For immunoprecipitations of Aβ and p3 from conditioned medium, HEK293T cells were labeled for 5 hours with 300 μCi Promix L [^35S] in vitro cell labeling mix (Amersham) 48 hours post-transfection. Aβ40 and Aβ42 as well as the corresponding p3 species were immunoprecipitated with monoclonal antibodies 1702.1 and 108.1, respectively (Higaki et al., J. Med. Chem. 42: 3889-3898 [1999]).
To analyze the metabolism of APP as a consequence of BACE or BACE2 overexpression we performed a parallel pulse-chase experiment (FIG. 2e). HEK293T cells transfected as above were pulse-labeled and chased for up to 90 minutes and APP and CTFs were immunoprecipitated. […] An alternative β-secretase related cleavage product (β′-CTF) was also formed consistent with previous reports (Vassar et al., Science [1999] ibid; Higaki et al., Neuron 14: 651-659 [1995]). Consistent with its β-secretase activity, BACE2 overexpression led to a significant initial increase in β-CTF levels compared to mock-transfected cells. […] In general, BACE2 might have increased the overall APP turnover. To determine whether BACE affected γ-secretase activity, we determined whether p3 could be formed. We transfected HEK293 cells as in FIG. 2e and labeled them for 5 hours with Promix L [^35S]. Aβ from conditioned medium was then precipitated with antibodies directed against the C-terminal residues of Aβ40 and Aβ42, respectively, that also recognize p3 (FIG. 2f). […] Taken together, BACE2 expression leads to alternative processing of APP that precludes Aβ formation.

[2] = HEK293 cells, labeled for 5 hours, conditioned medium

B1: BACE2: human aspartyl protease, close homolog of BACE (SEQ ID NO: 2), expressed from pcDNA3.1(−)/BACE2 in transfected cells (protein)
chain: MGALARALLLPLLAQWLLRAAPELAPAPFTLPLRVAAATNRVVAPTPGPGTPAERHADGLALALEPALASPAGAANFLAMVDNLQGDSGRGYYLEMLIGTPPQKLQILVDTGSSNFAVAGTPHSYIDTYFDTERSSTYRSKGFDVTVKYTQGSWTGFVGEDLVTIPKGFNTSFLVNIATIFESENFFLPGIKWNGILGLAYATLAKPSSSLETFFDSLVTQANIPNVFSMQMCGAGLPVAGSGTNGGSLVLGGIEPSLYKGDIWYTPIKEEWYYQIEILKLEIGGQSLNLDCREYNADKAIVDSGTTLLRLPQKVFDAVVEAVARASLIPEFSDGFWTGSQLACWTNSETPWSYFPKISIYLRDENSSRSFRITILPQLYIQPMMGAGLNYECYRFGISPSTNALVIGATVMEGFYVIFDRAQKRVGFAASPCAEIAGAAVSEISGPFSTEDVASNCVPAQSLSEPILWIVSYALMSVCGAILLVLIVLLLLPFRCQRRPRDPEVVNDESSLVRHRWK
APP751wt
  β-NTF formation (β-secretase cleavage in vitro): cleaved APP751wt to a similar extent as BACE
[1]; HEK293T, APP751sw, 15 min pulse, chase up to 90 minutes
  APP CTF turnover (β-CTF, β′-CTF, α-CTF): strong accumulation of a cleavage product that based on size and gel migration corresponded to α-CTF
[1]; [2]
  formation of Aβ40 and Aβ42 (immunoprecipitation): interfered with the formation of both Aβ40 and Aβ42
  p3 formation: p3 levels were not significantly affected

— patent US6713276B2, “Modulation of Aβ levels by β-secretase BACE2” (Scios, Inc., priority 2000, dated 2004)
